“And” between values parts separate entries of the source, which are not always exact repeats. Equal entries are not always repeated. Where two headings read alike, the source gives them in different places.
Tests used:
[1] = target: T1, recombinant human IL-1 beta (human, UniProt P01584 117-269); test: cell-based or functional assay
[2] = target: T1, recombinant human IL-1 beta; test: cell-based or functional assay; remark: listed apart in the source
swine IL-1 beta = target: T2, swine IL-1 beta (swine, UniProt P26889 115-267, limits assumed); test: ELISA, IL-1 beta coated at 2 mcg/ml, Protein L-HRP detection
T2 construct: Bought protein; also called porcine IL-1 beta
T2 sequence (looked up): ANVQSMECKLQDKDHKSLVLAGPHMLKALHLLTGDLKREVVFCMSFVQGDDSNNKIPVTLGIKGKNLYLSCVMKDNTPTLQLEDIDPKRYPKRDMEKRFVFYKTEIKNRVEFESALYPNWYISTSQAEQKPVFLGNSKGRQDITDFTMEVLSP
Excerpt: (§1) Binding to the recombinantly expressed IL-1 beta proteins of the following species was investigated: cynomolgus (Sino Biological Inc., USA, cat. no. 90010-CNAE), rhesus macaque (R&D Systems, USA, cat. no. 1318-RL/CF), swine (Kingfisher Biotech, USA, cat. no. RP0297S-025), canine (Kingfisher Biotech, USA, cat. no. RP0085D-025), guinea pig (Kingfisher Biotech, cat. no. RP0343GP-025), rat (Peprotech, cat. no. 400-01B) and mouse (BioLegend, cat. no. 575102). […] Briefly, proteins were coated at a concentration of 2 mcg/ml over night at 4° C. on Maxisorp 96-well microplates in PBS. […] The ELISA was developed with BM Blue POD substrate (Roche Applied Science) and the absorbance was measured at 450 nm.

canine IL-1 beta = target: T3, canine IL-1 beta (canine, UniProt Q28292 115-266, limits assumed); test: as above
T3 construct: Bought protein
T3 sequence (looked up): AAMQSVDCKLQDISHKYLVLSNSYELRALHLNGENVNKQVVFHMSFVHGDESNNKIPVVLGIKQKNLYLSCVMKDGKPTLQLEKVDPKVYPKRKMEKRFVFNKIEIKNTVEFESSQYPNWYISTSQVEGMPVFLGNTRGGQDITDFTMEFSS
Excerpt: as §1

guinea pig IL-1 beta = target: T4, guinea pig IL-1 beta (guinea pig, UniProt Q9WVG1 115-266); test: as above
T4 construct: Bought protein
T4 sequence: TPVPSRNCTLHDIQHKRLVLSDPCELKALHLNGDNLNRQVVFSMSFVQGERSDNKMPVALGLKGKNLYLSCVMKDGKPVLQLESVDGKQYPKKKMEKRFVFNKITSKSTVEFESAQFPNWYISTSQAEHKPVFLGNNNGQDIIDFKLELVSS
Excerpt: as §1

mouse IL-1 beta = target: T5, mouse IL-1 beta (mouse, UniProt P10749 118-269); test: as above
T5 construct: Bought protein
Excerpt: as §1

rhIL-1ra = target: T6, rhIL-1ra (human, UniProt P18510 26-177); test: ELISA, cytokine coated, carried out essentially as for the species orthologs
T6 construct: Bought protein; also called rhIL-1 receptor antagonist; IL-1 beta receptor antagonist
Procedure: (§2) Briefly, proteins were coated at a concentration of 2 mcg/ml over night at 4° C. on Maxisorp 96-well microplates in PBS. […] The ELISA was developed with BM Blue POD substrate (Roche Applied Science) and the absorbance was measured at 450 nm.
(§3) In the applied ELISA assay the following antibodies served as positive controls: biotin anti-human IL-1ra (BioLegend, cat. no. 509501), biotin anti-human IL-1 alpha (BioLegend, cat. no. 515703), anti-human IL-18 polyclonal antibody (BioVision, cat. no. 5179-100), biotin anti-human IL-33 antibody (Peprotech, cat. no. 500-P261Bt), anti-human TNF alpha scFv DLX105 (Delenex propriety antibody described in WO 2006/131013 A), biotin anti-human IL-6 (R&D systems, DY206, cat. no. 840114), anti-human IL-36ra (R&D systems, cat. no. AF1275). The ELISA was carried out essentially as described above.

rhIL-1 alpha = target: T7, rhIL-1 alpha (human, UniProt P01583 113-271); test: as above
T7 construct: Bought protein
T7 sequence (looked up): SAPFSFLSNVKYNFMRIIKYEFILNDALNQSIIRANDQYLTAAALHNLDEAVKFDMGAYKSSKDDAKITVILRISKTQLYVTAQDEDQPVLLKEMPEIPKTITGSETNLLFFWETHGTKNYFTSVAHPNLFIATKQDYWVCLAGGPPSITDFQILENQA
Procedure: as §2, §3

rhIL-18 = target: T8, rhIL-18 (human, UniProt Q14116 37-193); test: as above
T8 construct: Bought protein
Procedure: as §2, §3

rhIL-33 = target: T9, rhIL-33 (human, UniProt O95760 112-270); test: as above
T9 construct: Bought protein
T9 sequence (looked up): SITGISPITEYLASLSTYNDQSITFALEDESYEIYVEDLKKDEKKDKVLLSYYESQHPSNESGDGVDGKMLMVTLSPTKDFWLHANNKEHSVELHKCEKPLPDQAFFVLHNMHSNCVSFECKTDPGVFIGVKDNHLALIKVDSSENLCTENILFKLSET
Procedure: as §2, §3

IL-36ra = target: T10, IL-36ra (human, UniProt Q9UBH0 2-155); test: as above
T10 construct: Bought protein
T10 sequence (looked up): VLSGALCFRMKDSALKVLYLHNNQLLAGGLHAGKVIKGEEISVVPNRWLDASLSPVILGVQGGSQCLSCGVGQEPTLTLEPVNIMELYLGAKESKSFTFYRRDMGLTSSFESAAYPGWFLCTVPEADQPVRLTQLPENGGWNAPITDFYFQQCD
Procedure: as §2, §3

rhTNF alpha = target: T11, rhTNF alpha (human, UniProt P01375 77-233); test: as above
T11 construct: Bought protein
Procedure: as §2, §3

rhIL-6 = target: T12, rhIL-6 (human, UniProt P05231 30-212); test: as above
T12 construct: Bought protein
Procedure: as §2, §3

rat IL-1 beta = target: T13, rat IL-1 beta (rat, UniProt Q63264 117-268); test: ELISA, IL-1 beta coated at 2 mcg/ml, DLX2323 0.1 to 1.0 mcg/ml, Protein L-HRP detection
T13 construct: Bought protein
Excerpt: as §1

cynomolgus IL-1 beta = target: T14, cynomolgus IL-1 beta (cynomolgus, UniProt P79182 117-268); test: as above
T14 construct: Bought protein
Excerpt: as §1

rhesus macaque IL-1 beta = target: T15, rhesus macaque IL-1 beta (rhesus macaque, UniProt P48090 117-269); test: as above
T15 construct: Bought protein; also called rhesus monkey IL-1 beta
Excerpt: as §1

[3] = target: T1, recombinant human IL-1 beta; test: cell-based or functional assay; remark: listed apart in the source

T13 sequence (Q63264 117-268 limits assumed): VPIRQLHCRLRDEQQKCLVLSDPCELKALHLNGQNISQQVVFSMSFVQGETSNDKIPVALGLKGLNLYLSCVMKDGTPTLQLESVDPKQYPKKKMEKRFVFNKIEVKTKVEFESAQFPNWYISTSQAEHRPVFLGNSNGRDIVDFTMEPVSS
T14 sequence (P79182 117-268 limits assumed): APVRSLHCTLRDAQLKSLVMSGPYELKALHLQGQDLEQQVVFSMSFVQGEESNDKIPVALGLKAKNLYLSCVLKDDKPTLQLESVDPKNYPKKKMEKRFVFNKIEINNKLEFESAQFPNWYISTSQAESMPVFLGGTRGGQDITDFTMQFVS
T15 sequence (P48090 117-269 limits assumed): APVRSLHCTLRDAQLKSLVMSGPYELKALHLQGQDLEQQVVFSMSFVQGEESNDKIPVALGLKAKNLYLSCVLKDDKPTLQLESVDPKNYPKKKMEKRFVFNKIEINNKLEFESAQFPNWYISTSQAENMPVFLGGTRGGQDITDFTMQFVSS
T6 sequence (P18510 26-177): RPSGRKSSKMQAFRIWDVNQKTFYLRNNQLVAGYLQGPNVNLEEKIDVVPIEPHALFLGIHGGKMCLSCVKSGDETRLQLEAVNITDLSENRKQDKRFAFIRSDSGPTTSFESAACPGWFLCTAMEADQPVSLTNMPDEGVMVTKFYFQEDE
T12 sequence (P05231 30-212 limits assumed): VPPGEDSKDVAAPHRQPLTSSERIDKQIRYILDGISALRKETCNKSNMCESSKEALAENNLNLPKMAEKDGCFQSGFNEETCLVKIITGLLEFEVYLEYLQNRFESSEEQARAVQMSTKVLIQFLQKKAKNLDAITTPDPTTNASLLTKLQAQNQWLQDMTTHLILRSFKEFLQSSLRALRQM
T11 sequence (P01375 77-233): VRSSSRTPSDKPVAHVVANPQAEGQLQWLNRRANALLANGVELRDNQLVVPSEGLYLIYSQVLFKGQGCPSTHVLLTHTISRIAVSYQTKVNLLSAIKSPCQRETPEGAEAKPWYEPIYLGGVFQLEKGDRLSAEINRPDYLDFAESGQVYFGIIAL
T5 sequence (P10749 118-269 limits assumed): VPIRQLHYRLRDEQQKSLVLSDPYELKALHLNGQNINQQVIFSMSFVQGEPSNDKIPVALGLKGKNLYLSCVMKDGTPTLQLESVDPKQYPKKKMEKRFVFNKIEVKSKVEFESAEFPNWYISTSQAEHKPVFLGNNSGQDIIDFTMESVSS

B1: anti-human IL-1 beta monoclonal IgG antibody MAB201 (antibody, from another filing, V domains shown)
VH: QVTLKESGPGILKPSQTLSLTCSFSGFSLSTSGMGVGWIRQPSGKGLEWLAHIWWDGDESYNPSLKTRLTISKNTSRNQVFLKITTVDTVDTATYFCARNRYDPPWFVDWGQGTLVTVSS
VL: DIQMTQTTSSLSASLGDRVTISCRASQDISNYLSWYQQKPDGTVKLLIYYTSKLHSGVPSRFSGSGSGTDYFLTISNLEQEDIATYFCLQGKMLPWTFGGGTKLEIK
IC50 of IL-1 beta-induced IL-6 release from human dermal fibroblasts [1]: 2 to 3 pM

B2: DLX2323 (scFv)
scFv: EIVMTQSPSTLSASVGDRVIITCQASQSIDNWLSWYQQKPGKAPKLLIYRASTLASGVPSRFSGSGSGAEFTLTISSLQPDDFATYYCQNTGGGVSIAFGQGTKLTVLGGGGGSGGGGSGGGGSGGGGSEVQLVESGGGLVQPGGSLRLSCTASGFSLSSAAMAWVRQAPGKGLEWVGIIYDSASTYYASWAKGRFTISRDTSKNTVYLQMNSLRAEDTAVYYCARERAIFSGDFVLWGQGTLVTVSS
notes: also called scFv DLX2323; parental scFv
IC50 of IL-1 beta-induced IL-6 release from human dermal fibroblasts [2]: 3 pM and 0.002 nM to 0.004 nM (2×)
binding result (swine IL-1 beta): no binding (tested: 1.0 mcg/ml)
binding result (canine IL-1 beta): no binding (tested: 1.0 mcg/ml)
binding result (guinea pig IL-1 beta): no binding (tested: 1.0 mcg/ml)
binding result (mouse IL-1 beta): no binding (tested: 1.0 mcg/ml)
binding result (rhIL-1ra): no binding
binding result (rhIL-1 alpha): no binding
binding result (rhIL-18): no binding
binding result (rhIL-33): no binding
binding result (IL-36ra): no binding
binding result (rhTNF alpha): no binding
binding result (rhIL-6): no binding
binding result (rat IL-1 beta): binds
binding result (cynomolgus IL-1 beta): binds
binding result (rhesus macaque IL-1 beta): binds

B3: DLX2547 (scFv)
scFv: ADIVMTQSPSTLSASVGDRVTITCQASQSISSYLSWYQQKPGKAPKLLIYRASTLASGVPSRFSGSGSGAEFTLTISSLQPDDFATYYCQNTGGGINIAFGQGTKLEIKRGGGGSGGGGSGGGGSGGGGSEVQLVESGGGLVQPGGSLRLSCTASGFSLSSAAMAWVRQAPGKGLEWVGIIYDSASTYYASWAKGRFTISRDTSKNTVYLQMNSLRAEDTAVYYCARERAIFSGDFVLWGQGTLVTVSS
IC50 of IL-1 beta-induced IL-6 release from human dermal fibroblasts [3]: 30 pM

B4: DLX2528 (scFv)
scFv: EIVMTQSPSTLSASVGDRVTITCQASQSIGNWLAWYQQKPGKAPKLLIYQASNLASGVPSRFSGSGSGTDFTLTISSLQPDDFATYYCQNAGGATTIAFGQGTKLTVLGGGGGSGGGGSGGGGSGGGGSEVQLVESGGGLVQPGGSLRLSCTASGFSLSSAAMAWVRQAPGKGLEWVGIIYDSASTYYASWAKGRFTISRDTSKNTVYLQMNSLRAEDTAVYYCARERAIFSGDFVLWGQGTLVTVSS
IC50 of IL-1 beta-induced IL-6 release from human dermal fibroblasts [3]: 8 pM

B5: DLX2545 (scFv)
scFv: EIVMTQSPSTLSASVGDRVIITCQASQSIDNWLSWYQQKPGKAPKLLIYRASTLASGVPSRFSGSGSGAEFTLTISSLQPDDFATYYCQNTGGGVSIAFGQGTKLTVLGGGGGSGGGGSGGGGSGGGGSEVQLVESGGGLVQPGGSLRLSCTASGFSLSSAAMAWVRQAPGKGLEWIGIIYDSASTYYASWAKGRFTISRDTSKNTLYLQMNSLRAEDTAVYFCARERNIFSGDMVLWGQGTTVTVSS
IC50 of IL-1 beta-induced IL-6 release from human dermal fibroblasts [3]: 7 pM

B6: DLX2586 (scFv)
scFv: EIVMTQSPSTLSASVGDRVIITCQASQSIDNWLSWYQQKPGKAPKLLIYRASTLASGVPSRFSGSGSGAEFTLTISSLQPDDFATYYCQNTGGGVSIAFGQGTKLTVLGGGGGSGGGGSGGGGSGGGGSEVQLVESGGGLVQPGGSLRLSCTVSGFSLSSYAMSWVRQAPGKGLEWIGIIYDSASTYYASWAKGRFTISKDTSKNTVYLQMNSLRAEDTAVYFCARERQIFSGDMDGWGQGTLVTVSS
IC50 of IL-1 beta-induced IL-6 release from human dermal fibroblasts [3]: 2 pM

B7: DLX2681 (scFv)
scFv: EIVMTQSPSTLSASVGDRVIITCRASQSIGNWLSWYQQKPGKAPKLLIYRASNLASGVPSRFSGSGSGAEFTLTISSLQPEDFATYYCQNTGGGINIAFGQGTKLTVLGGGGGSGGGGSGGGGSGGGGSEVQLVESGGGNVQPGGSLRLSCTASGFSLSNSAMAWVRQAPGKGLEWVGIIYDSASTYYASWAKGRFTISRDNSKNTVYLQMNSLRAEDTATYYCARERAIFSGDFALWGQGTLVTVSS
IC50 of IL-1 beta-induced IL-6 release from human dermal fibroblasts [2]: 0.6 pM

B8: DLX2693 (scFv)
scFv: ADIVMTQSPSTLSASVGDRVTITCQASQSISSYLSWYQQKPGKAPKLLIYRASTLASGVPSRFSGSGSGAEFTLTISSLQPDDFATYYCQNTGGGINIAFGQGTKLEIKRGGGGSGGGGSGGGGSGGGGSEVQLVESGGGNVQPGGSLRLSCTASGFSLSNSAMAWVRQAPGKGLEWVGIIYDSASTYYASWAKGRFTISRDNSKNTVYLQMNSLRAEDTATYYCARERAIFSGDFALWGQGTLVTVSS
IC50 of IL-1 beta-induced IL-6 release from human dermal fibroblasts [2]: 12.5 pM

B9: canakinumab IgG (Novartis, ILARIS) (antibody, V domains shown)
VH: QVQLVESGGGVVQPGRSLRLSCAASGFTFSVYGMNWVRQAPGKGLEWVAIIWYDGDNQYYADSVKGRFTISRDNSKNTLYLQMNGLRAEDTAVYYCARDLRTGPFDYWGQGTLVTVSS
VL: EIVLTQSPDFQSVTPKEKVTITCRASQSIGSSLHWYQQKPDQSPKLLIKYASQSFSGVPSRFSGSGSGTDFTLTINSLEAEDAAAYYCHQSSSLPFTFGPGTKVDIKR
IC50 of IL-1 beta-induced IL-6 release from human dermal fibroblasts [2]: 90 pM
